{
  "source": "patent CN111840217A",
  "about": "(BEIJING EASTERN BIOTECH CO LTD, dated 2020)",
  "binders": {"B1": {"name": "上市产品Brodalumab的全抗体 (antibody, V domains shown)", "VH": "QVQLVQSGAEVKKPGASVKVSCKASGYTFTRYGISWVRQAPGQGLEWMGWISTYSGNTNYAQKLQGRVTMTTDTSTSTAYMELRSLRSDDTAVYYCARRQLYFDYWGQGTLVTVSS", "VL": "EIVMTQSPATLSVSPGERATLSCRASQSVSSNLAWFQQKPGQAPRPLIYDASTRATGVPARFSGSGSGTDFTLTISSLQSEDFAVYYCQQYDNWPLTFGGGTKVEIK"}, "B2": {"name": "mAb-6全抗体 (antibody, human IgG1, kappa, V domains shown)", "VH": "B1 VH with T28S, Q62K, K63Q, L64F, Q65K, Q100V, Y102R, F103L", "VL": "EIVMTQSPATLSVSPGERATLSCRASQDISISLGWFQQKPGQAPRPLIYGWNTRATGVPARFSGSGSGTDFTLTISSLQSEDFAVYYCQQYSDPFLTFGGGTKVEIKR"}, "B3": {"name": "mAb-9全抗体 (antibody, human IgG1, kappa, V domains shown)", "VH": "B1 VH with F29W, R31S, Q62K, L64F, Q65L, Q100V, Y102R, F103L", "VL": "DIQMTQSPSSLSASVGDRVTITCRASQSVHTGLNWYQQKPGKAPKLLIYGASNLQSGVPSRFSGSGSGTDFTLTISSLQPEDFATYYCQQFEHNPLTFGQGIKVEIKR"}, "B4": {"name": "mAb-4全抗体 (antibody, human IgG1, kappa, V domains shown)", "VH": "B1 VH with T28A, F29Y, T30S, R31N, Q62K, L64F, Q65I, Q100V, Y102R, F103L", "VL": "DIQMTQSPSSLSASVGDRVTITCRASQDIDSSLNWYQQKPGKAPKLLIYAASNRESGVPSRFSGSGSGTDFTLTISSLQPEDFATYYCQQWANMPGTFGQGTKVEIKR"}, "B5": {"name": "mAb-7全抗体 (antibody, human IgG1, kappa, V domains shown)", "VH": "B1 VH with R31S, Q62K, K63N, Q100V, Y102R, F103L", "VL": "B2 VL"}, "B6": {"name": "mAb-11全抗体 (antibody, human IgG1, kappa, V domains shown)", "VH": "B1 VH with T28A, F29W, Q62K, L64F, Q65K, Q100V, Y102R, F103L", "VL": "B3 VL"}, "B7": {"name": "mAb-5全抗体 (antibody, human IgG1, kappa, V domains shown)", "VH": "B1 VH with Y27F, T28A, Q62D, K63Q, L64F, Q65I, Q100V, Y102R, F103L", "VL": "B4 VL"}, "B8": {"name": "mAb-3全抗体 (antibody, human IgG1, kappa, V domains shown)", "VH": "B1 VH with T28A, T30S, Y32F, Q62K, K63H, Q65L, Q100F, Y102K", "VL": "B4 VL"}, "B9": {"name": "mAb-2全抗体 (antibody, human IgG1, kappa, V domains shown)", "VH": "B1 VH with T28A, F29W, Q62K, L64F, Q65K, Q100V, Y102R, F103L", "VL": "B4 VL"}, "B10": {"name": "mAb-8全抗体 (antibody, human IgG1, kappa, V domains shown)", "VH": "B1 VH with T28G, T30A, R31S, Y32R, Q62K, L64F, Q65E, Q100V, Y102R, F103L", "VL": "B3 VL"}, "B11": {"name": "mAb-10全抗体 (antibody, human IgG1, kappa, V domains shown)", "VH": "B1 VH with T28S, T30S, R31S, Q62K, L64F, Q65K, Q100V, Y102R, F103L", "VL": "B3 VL"}, "B12": {"name": "mAb-1全抗体 (antibody, human IgG1, kappa, V domains shown)", "VH": "B1 VH with T28S, F29Y, T30S, R31N, A61S, Q62K, Q65K, Q100V, Y102R, F103L", "VL": "B4 VL"}},
  "note": "Residue numbers refer to the chain shown, from its start.",
  "data": [
    {"biological_target": "T1, 人皮肤成纤维细胞(HDF)上的IL-17RA (UniProt Q96F46 33-866, limits assumed)", "T1 sequence (looked up)": "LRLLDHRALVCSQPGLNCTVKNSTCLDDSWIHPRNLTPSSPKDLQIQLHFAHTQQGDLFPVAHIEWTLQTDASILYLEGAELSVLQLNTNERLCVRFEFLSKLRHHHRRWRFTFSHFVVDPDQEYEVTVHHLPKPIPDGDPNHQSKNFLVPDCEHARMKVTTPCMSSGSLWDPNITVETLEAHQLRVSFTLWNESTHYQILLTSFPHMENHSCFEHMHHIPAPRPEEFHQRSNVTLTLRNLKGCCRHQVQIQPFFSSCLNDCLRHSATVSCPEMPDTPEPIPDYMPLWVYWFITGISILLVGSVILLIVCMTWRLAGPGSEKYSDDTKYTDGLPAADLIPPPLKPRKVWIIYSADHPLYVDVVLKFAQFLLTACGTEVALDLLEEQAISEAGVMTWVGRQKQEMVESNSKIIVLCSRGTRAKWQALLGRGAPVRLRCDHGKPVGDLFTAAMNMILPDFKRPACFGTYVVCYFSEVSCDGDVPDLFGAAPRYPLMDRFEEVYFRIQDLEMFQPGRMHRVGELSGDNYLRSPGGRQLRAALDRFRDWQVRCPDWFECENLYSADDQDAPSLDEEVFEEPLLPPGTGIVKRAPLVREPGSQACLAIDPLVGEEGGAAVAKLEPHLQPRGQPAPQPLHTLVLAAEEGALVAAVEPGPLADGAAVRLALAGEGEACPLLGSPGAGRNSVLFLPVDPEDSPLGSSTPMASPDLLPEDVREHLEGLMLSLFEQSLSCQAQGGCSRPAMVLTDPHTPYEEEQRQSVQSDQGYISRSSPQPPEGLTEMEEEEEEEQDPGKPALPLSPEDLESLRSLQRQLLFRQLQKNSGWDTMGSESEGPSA", "assay": "cell-based or functional assay", "units": {"抑制HDF细胞产生IL-6 IC50(ng/ml)": "ng/mL"}, "values": [
      {"binder": "B1", "抑制HDF细胞产生IL-6 IC50(ng/ml)": 117},
      {"binder": "B2", "抑制HDF细胞产生IL-6 IC50(ng/ml)": 33.4},
      {"binder": "B3", "抑制HDF细胞产生IL-6 IC50(ng/ml)": 24.8},
      {"binder": "B4", "抑制HDF细胞产生IL-6 IC50(ng/ml)": 35.8},
      {"binder": "B5", "抑制HDF细胞产生IL-6 IC50(ng/ml)": 29.7},
      {"binder": "B6", "抑制HDF细胞产生IL-6 IC50(ng/ml)": 60.8},
      {"binder": "B7", "抑制HDF细胞产生IL-6 IC50(ng/ml)": 22.9},
      {"binder": "B8", "抑制HDF细胞产生IL-6 IC50(ng/ml)": 33.4},
      {"binder": "B9", "抑制HDF细胞产生IL-6 IC50(ng/ml)": 22.7},
      {"binder": "B10", "抑制HDF细胞产生IL-6 IC50(ng/ml)": 13.5},
      {"binder": "B11", "抑制HDF细胞产生IL-6 IC50(ng/ml)": 36.4},
      {"binder": "B12", "抑制HDF细胞产生IL-6 IC50(ng/ml)": 28.4}
    ]}
  ]
}
